Changes are numbered by the printed parent chain.
B1: KLK7-L1-Ab4 (antibody, V domains shown)
VH: QVQLVQSGAEVKKPGASVKVSCKASGYTFTSEGIHWVRQAPGQGLEWMGSISASSGDTNYAQKLQGRVTMTTDTSTSTAYMELRSLRSDDTAVYYCARAAGYGARHWYFDLWGQGTMVTVSS
VL: DIQMTQSPSSLSASVGDRVTITCRASQSISSYLNWYQQKPGKAPKLLIYGASSLQSGVPSRFSGSGSGTDFTLTISSLQPEDFATYYCDQFYSTPPITFGGGTKVEIK
B2: KLK7-L1-Ab1 (antibody, V domains shown)
VH: B1 VH with A16S, Y27G, T30S, S31N, E32Y, G33A, H35S, S50W, S54Y
VL: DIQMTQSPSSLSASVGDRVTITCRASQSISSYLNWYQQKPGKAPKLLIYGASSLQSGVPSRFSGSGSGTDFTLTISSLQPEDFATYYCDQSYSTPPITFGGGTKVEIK
B3: KLK7-L1-Ab5 (antibody, V domains shown)
VH: B1 VH
VL: B1 VL with F91W
B4: KLK7-L1-Ab2 (antibody, V domains shown)
VH: B1 VH with T30G, S31P, E32Y, H35S, S50W, S54Y, H106W
VL: B1 VL with Q90G, F91S
B5: KLK7-L1-Ab6 (antibody, V domains shown)
VH: B1 VH with H106S
VL: B1 VL
B6: KLK7-L1-Ab3 (antibody, V domains shown)
VH: B1 VH with K63E
VL: B1 VL
B7: KLK7-L1-Ab7 (antibody, V domains shown)
VH: B1 VH with A99G, H106D
VL: B1 VL with F91R
B8: KLK7-L4-Ab2 (antibody, V domains shown)
VH: QLQLQESGPGLVKPSETLSLTCTVSGGSISSSPYNWVWIRQPPGKGLEWIGSILHSGSTYYNPSLKSRVTISVDTSKNQFSLKLSSVTAADTAVYYCARGVPTYWGAASHYYYYMDVWGKGTTVTVSS
VL: DIQMTQSPSTLSASVGDRVTITCRASQSISSWLAWYQQKPGKAPKLLIYKASSLESGVPSRFSGSGSGTEFTLTISSLQPDDFATYYCEQYGSESPLTFGGGTKVEIK
B9: KLK7-L2-Ab2 (antibody, V domains shown)
VH: QVQLQESGPGLVKPSQTLSLTCTVSGGSISSGGYYWHWIRQHPGKGLEWIGYIYRSGYTYYNPSLKSRVTISVDTSKNQFSLKLSSVTAADTAVYYCARAKQLTTHRYFDYWGQGTLVTVSS
VL: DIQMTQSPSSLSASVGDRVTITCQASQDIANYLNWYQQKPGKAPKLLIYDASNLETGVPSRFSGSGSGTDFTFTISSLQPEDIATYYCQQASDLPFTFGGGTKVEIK
B10: KLK7-L2-Ab1 (antibody, V domains shown)
VH: B9 VH with H37S, Y52S, R55Y, Y58S
VL: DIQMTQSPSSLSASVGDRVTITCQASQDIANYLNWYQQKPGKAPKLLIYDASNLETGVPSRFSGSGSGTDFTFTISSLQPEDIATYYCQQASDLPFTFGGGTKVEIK
B11: KLK7-L2-Ab5 (antibody, V domains shown)
VH: B9 VH with H106S
VL: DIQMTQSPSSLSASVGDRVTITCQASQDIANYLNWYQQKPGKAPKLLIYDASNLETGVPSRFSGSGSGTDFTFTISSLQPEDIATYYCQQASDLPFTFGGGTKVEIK
B12: KLK7-L2-Ab3 (antibody, V domains shown)
VH: B9 VH with Y35S, H37N, Y52S, Y58S, Q102A, F109V
VL: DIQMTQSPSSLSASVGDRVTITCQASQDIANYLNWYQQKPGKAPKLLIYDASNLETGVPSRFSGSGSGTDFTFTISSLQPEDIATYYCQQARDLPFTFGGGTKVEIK
B13: KLK7-L2-Ab4 (antibody, V domains shown)
VH: B9 VH with Y35S, H37N, Y52S, Y58S, T105L, H106T
VL: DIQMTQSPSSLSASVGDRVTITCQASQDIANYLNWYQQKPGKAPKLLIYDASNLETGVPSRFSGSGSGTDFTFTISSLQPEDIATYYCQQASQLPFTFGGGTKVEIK
B14: KLK7-L5-Ab1 (antibody, V domains shown)
VH: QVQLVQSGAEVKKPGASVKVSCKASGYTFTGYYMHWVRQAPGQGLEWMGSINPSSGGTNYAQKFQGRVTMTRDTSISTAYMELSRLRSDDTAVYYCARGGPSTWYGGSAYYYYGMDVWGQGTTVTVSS
VL: EIVLTQSPGTLSLSPGERATLSCRASQSVSSDYLAWYQQKPGQAPRLLIYGASSRATGIPDRFSGSGSGTDFTLTISRLEPEDFAVYYCQQYANLWTFGGGTKVEIK
B15: KLK7-L5-Ab2 (antibody, V domains shown)
VH: QVQLVQSGAEVKKPGASVKVSCKASGYTFAGYDMHWVRQAPGQGLEWMGSINPTSGRTNYAQKFQGRVTMTRDTSISTAYMELSRLRSDDTAVYYCARGGPSTWYGGSAYTYYGADVWGQGTTVTVSS
VL: B14 VL with N94P
B16: KLK5-L1-Ab5 (antibody, V domains shown)
VH: EVQLVESGGGLVQPGGSLRLSCAASGFTFEHYSMNWVRQAPGKGLEWVSYISSSSSYIDYADSVKGRFTISRDNAKNSLYLQMNSLRAEDTAVYYCARDLTDRQSRDYYYYGMDVWGQGTTVTVSS
VL: DIQMTQSPSSVSASVGDRVTITCRASQGISSWLAWYQQKPGKAPKLLIYAASSLQSGVPSRFSGSGSGTDFTLTISSLQPEDFATYYCQQVPIFPYTFGGGTKVEIK
notes: also called KLK-L1-Ab5
B17: KLK7-L3-Ab3 (antibody, V domains shown)
VH: QVQLVQSGAEVKKPGSSVKVSCKASGGTFSSHAITWVRQAPGQGLEWMGGIIPIFGFANYAQKFQGRVTITADESTSTAYMELSSLRSEDTAVYYCARGAPNYYGSASSRGIAFDIWGQGTMVTVSS
VL: B16 VL with Q89V, V91A, P92N, I93A, T97S
B18: KLK7-L3-Ab2 (antibody, V domains shown)
VH: B17 VH with S30N, S31N, H32Y, T35S, G50A, F57V, S106A, A107Q
VL: B16 VL with Q89V, V91A, P92N, I93A, T97K
B19: KLK5-L3-Ab6 (antibody, V domains shown)
VH: QVQLVQSGAEVKKPGSSVKVSCKASGGTFSGYVISWVRQAPGQGLEWMGGIFPISGYAVYAQKFQGRVTITADESTSTAYMELSSLRSEDTAVYYCARASASGYYDRSYYYYGMDVWGQGTTVTVSS
VL: B16 VL with P92S, I93S, Y96Q

How the values were obtained:
mouse KLK7 (mKLK7) [1] = biological target: T1, mouse KLK7 (mKLK7) (mouse, UniProt Q91VE3 26-249); assay: cell-based or functional assay
[2] = biological target: human KLK7 (hKLK7), active form (human, UniProt P49862 30-253); assay: cell-based or functional assay
mouse KLK7 (mKLK7) [3] = biological target: T1, mouse KLK7 (mKLK7); assay: Biacore SPR, antibody captured on Protein A chip, single-cycle kinetics, 25 C
Method: (§1) All screening assays were performed at 25 C. The running buffer used was 20 mM HEPES, 300 mM NaCl, 0.01% Tween-20, pH 7.5. Antibodies (1 ug/mL) were captured on Fc2-4 of a Series S ProteinA Sensor Chip (Cytiva) flowing at 10 ul/mL for 30 s. Kinetics measurements were made in single-cycle kinetics mode with a series of 4-5 concentrations with top concentration of 25-100 nM and serial dilution 4-fold. Contact time was typically 300 s and dissociation time ranged from 1800-3600 s. Flow rate of 30 ul/mL was typically used. The sensor chip was regenerated with 10 mM glycine, pH 1.5 with a contact time of 30 s flowing at 50 ul/mL.

mouse KLK5 (mKLK5) [4] = biological target: T2, mouse KLK5 (mKLK5) (mouse); assay: as above
T2 construct: Enzymatically active in the protease assay
Method: as §1

mouse KLK5 (mKLK5) [5] = biological target: T2, mouse KLK5 (mKLK5); assay: cell-based or functional assay

T1 sequence (Q91VE3 26-249 limits assumed): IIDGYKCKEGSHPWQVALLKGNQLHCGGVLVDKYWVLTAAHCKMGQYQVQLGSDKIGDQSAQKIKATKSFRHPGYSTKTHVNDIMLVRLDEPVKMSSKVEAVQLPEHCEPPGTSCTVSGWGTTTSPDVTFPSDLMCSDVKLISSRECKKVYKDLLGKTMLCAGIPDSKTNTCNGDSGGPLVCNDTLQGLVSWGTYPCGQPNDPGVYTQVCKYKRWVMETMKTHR
Chain of human KLK7 (hKLK7), active form (P49862 30-253): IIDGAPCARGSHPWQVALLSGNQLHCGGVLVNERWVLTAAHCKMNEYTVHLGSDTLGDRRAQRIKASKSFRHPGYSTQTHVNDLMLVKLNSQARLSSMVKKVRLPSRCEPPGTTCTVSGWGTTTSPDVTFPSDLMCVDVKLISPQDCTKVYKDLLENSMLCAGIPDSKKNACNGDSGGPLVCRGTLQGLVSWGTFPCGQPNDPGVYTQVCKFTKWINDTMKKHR

Row | Binder | mKLK7 IC50 (protease inhibition) (mouse KLK7 (mKLK7) [1]) [nM] | mKLK7 IC90 (protease inhibition) (mouse KLK7 (mKLK7) [1]) [nM] | hKLK7 IC50 (protease inhibition) [2] [nM] | hKLK7 IC90 (protease inhibition) [2] [nM] | Kd (mouse KLK7 (mKLK7) [3]) [nM] | Kd (mouse KLK5 (mKLK5) [4]) [nM] | mKLK5 IC50 (protease inhibition) (mouse KLK5 (mKLK5) [5]) [nM] | mKLK5 IC90 (protease inhibition) (mouse KLK5 (mKLK5) [5]) [nM]
1 | B1 | 1.42 | 7.12 | 0.914 | 3.67 | 0.0107 |  |  | 
2 | B2 | 0.5 | 108 |  |  | 1.62 |  |  | 
3 | B3 | 1.35 | 7.25 | 1.23 | 4.66 | 0.017 |  |  | 
4 | B4 | 3.42 | 19.8 | 1.69 | 6.11 | 0.0354 |  |  | 
5 | B5 | 1.25 | 4.58 |  |  | 0.0144 |  |  | 
6 | B6 | 1.46 | 6.45 | 1.2 | 5.03 | 0.0402 |  |  | 
7 | B7 | 1.06 | 5.03 |  |  | 0.0302 |  |  | 
8 | B8 | 2.42 | 9.04 | 1.42 | 6.34 | 0.0266 |  |  | 
9 | B9 | 2.31 | 6.01 |  |  | 0.0357 |  |  | 
10 | B10 |  | 5.63 |  |  | 0.0796 |  |  | 
11 | B11 | 1.91 | 6.52 |  |  | 0.018 |  |  | 
12 | B12 | 1.49 | 4.88 | 0.833 | 3.39 |  |  |  | 
13 | B13 | 1.63 | 6.51 |  |  | 0.0101 |  |  | 
14 | B14 | 15 | 67.3 |  |  | 4.86 |  |  | 
15 | B15 | 1.48 | 26.5 |  |  | 0.0253 |  |  | 
16 | B16 |  |  |  |  |  | 0.26 | 4.1 | 25
17 | B17 | 3.34 | 11.4 | 1.4 | 8.25 | 0.217 |  |  | 
18 | B18 | 2.68 | 11.5 | 0.802 | 4.43 | 0.125 |  |  | 
19 | B19 |  |  |  |  |  | 12 | 12.7 | 80.8
